Article PMC10354078, “Conformational restriction shapes the inhibition of a multidrug efflux adaptor protein” (Nature Communications, 2023)
Numbering of substitutions follows the chain as printed.

B1: AcrA^L (lipidated AcrA) (natural protein)
chain: CDDKQAQQGGQQMPAVGVVTVKTEPLQITTELPGRTSAYRIAEVRPQVSGIILKRNFKEGSDIEAGVSLYQIDPATYQATYDSAKGDLAKAQAAANIAQLTVNRYQKLLGTQYISKQEYDQALADAQQANAAVTAAKAAVETARINLAYTKVTSPISGRIGKSNVTEGALVQNGQATALATVQQLDPIYVDVTQSSNDFLRLKQELANGTLKQENGKAKVSLITSDGIKFPQDGTLEFSDVTVDQTTGSITLRAIFPNPDHTLLPGMFVRARLEEGLNPNAILVPQQGVTRTPRGDATVLVVGADDKVETRPIVASQAIGDKWLVTEGLKAGDRVVISGLQKVRPGVQVKAQEVTADNNQQAASGAQPEQSKS
modifications: lipidated at Cys25 (after cleavage of signal peptide 1-24)
notes: AcrA, periplasmic adaptor protein of E. coli; full length AcrA cloned from genomic DNA; signal peptide residues 1-24 is cleaved, the protein begins at lipidated Cys25; Cloned into pET28a with NcoI and XhoI; source: E. coli C43(DE3) ΔacrAB, solubilised from membranes with 1% DDM, purified (HiTrap, SEC) in 0.03% DDM
B2: AcrA^S (soluble AcrA lacking signal peptide and lipidation) (domain or fragment)
chain: B1 chain with C1M
notes: AcrA of E. coli without signal peptide residues 1-24; Cys25 replaced by a starting methionine (Met25); not lipidated; pET28a construct; source: E. coli C43(DE3) ΔacrAB, cytosolic fraction, purified (HiTrap, SEC)

Columns and labels:
[1] = target: the molecule itself; experiment: native MS; pH 7.4, 100 mM ammonium acetate; AcrA^L with 0.03% DDM
[2] = target: the molecule itself; experiment: native MS; pH 6.0, 100 mM ammonium acetate; AcrA^L with 0.03% DDM (2x CMC); Synapt G2-Si or Q-Exactive UHMR
[3] = target: T1, AcrB in SMALP (styrene maleic acid lipid particle) nanodiscs (E. coli, UniProt P31224 1-1049); experiment: native gel or EMSA; SMA-PAGE (native PAGE for SMALPs): AcrA constructs mixed with AcrB in SMALP nanodiscs; Novex Tris-Glycine 4-20% gels, 25 mM Tris pH 8.8, 192 mM glycine, 150 V, 4 °C, Coomassie stain; conditions: both partners purified
T1 construct: AcrB, inner membrane RND transporter of the E. coli AcrAB-TolC pump; pET15b plasmid; embedded in native lipid SMALP nanodiscs; also called trimeric AcrB SMALPs; source: E. coli C43(DE3) ΔacrAB, extracted from membranes with 2.5% SMA 2000 into native nanodiscs, purified (nickel NTA)
T1 sequence: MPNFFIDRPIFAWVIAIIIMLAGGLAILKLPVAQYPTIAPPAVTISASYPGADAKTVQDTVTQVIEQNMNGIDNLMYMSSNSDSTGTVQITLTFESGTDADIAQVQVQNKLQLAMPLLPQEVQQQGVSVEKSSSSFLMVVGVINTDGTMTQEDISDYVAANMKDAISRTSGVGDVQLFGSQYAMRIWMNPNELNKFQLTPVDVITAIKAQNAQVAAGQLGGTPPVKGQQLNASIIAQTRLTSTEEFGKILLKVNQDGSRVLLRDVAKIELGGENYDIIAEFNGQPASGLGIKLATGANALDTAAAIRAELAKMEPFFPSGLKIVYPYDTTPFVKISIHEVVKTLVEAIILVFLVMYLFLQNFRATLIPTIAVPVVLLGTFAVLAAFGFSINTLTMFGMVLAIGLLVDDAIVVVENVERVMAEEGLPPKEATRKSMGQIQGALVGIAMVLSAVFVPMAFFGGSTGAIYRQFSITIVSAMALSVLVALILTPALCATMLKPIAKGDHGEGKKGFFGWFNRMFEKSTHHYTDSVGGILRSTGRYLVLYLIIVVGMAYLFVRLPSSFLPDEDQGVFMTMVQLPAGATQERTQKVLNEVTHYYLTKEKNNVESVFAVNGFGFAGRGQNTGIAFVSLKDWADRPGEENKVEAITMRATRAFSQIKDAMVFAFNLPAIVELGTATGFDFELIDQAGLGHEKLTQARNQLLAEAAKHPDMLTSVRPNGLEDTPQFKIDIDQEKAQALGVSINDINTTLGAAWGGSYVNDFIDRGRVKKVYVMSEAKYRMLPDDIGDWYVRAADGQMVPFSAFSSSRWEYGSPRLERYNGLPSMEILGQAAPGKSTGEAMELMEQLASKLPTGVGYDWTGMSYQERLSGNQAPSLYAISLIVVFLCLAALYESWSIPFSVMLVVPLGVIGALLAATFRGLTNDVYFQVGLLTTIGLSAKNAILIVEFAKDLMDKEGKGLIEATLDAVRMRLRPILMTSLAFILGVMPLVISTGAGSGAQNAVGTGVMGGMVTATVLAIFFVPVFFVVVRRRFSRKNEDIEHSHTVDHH

Binder | stoichiometry N [1] | stoichiometry N [2] | stoichiometry N [3]
B1 | ≤ 5 | 2 | 
B2 |  |  | 1
